The record followed here is patent publication US20240026407A1, “MODIFICATION OF SAPONINS” (GLAXOSMITHKLINE BIOLOGICALS SA, priority 2020, published 2024).

What all share (format): biochemical, Quillaja saponaria
A short description of assay [1]: Experiment 6-1: screening of rhamnosidases for derhamnosylation of saponins in treated bark extract (2%), QS-17 2296 to QS-18 2150 (PAR %). Conditions: TBE 2%, pH 7.5, 30 degC, 18 h; TIC peak area ratio percent of rhamnosylated starting saponin to derhamnosylated product, LCMS/MS; negative controls 4.876, 5.225.
A short description of assay [2]: Experiment 6-1: screening of rhamnosidases for derhamnosylation of saponins in treated bark extract (2%), desglucosyl-QS-17 2134 to QS-21 1988 (PAR %). The settings on record: TBE 2%, pH 7.5, 30 degC, 18 h; TIC peak area ratio percent, LCMS/MS; negative controls 2.719, 2.158.
Assay [3] can be described thus: Experiment 6-1: specificity of rhamnosidases towards other rhamnose residues (C3 saccharide rhamnose, C28 saccharide rhamnose). Conditions: TBE 2%, pH 7.5, 30 degC, 18 h; LCMS/MS; negative controls 0.18, 0.17.
The nature of assay [4]: Experiment 6-1: screening of rhamnosidases for derhamnosylation of saponins in treated bark extract (2%), QS-17 2310 to QS-18 2164 (PAR %). Conditions: TBE 2%, pH 7.5, 30 degC, 18 h; TIC peak area ratio percent, LCMS/MS; negative controls 3.061, 2.429.

B1: 1069 (protein, listed as Deltaproteobacteria bacterium)
chain: MSLHDRSWVWNPDWNESRKETSAGGFVHFRREIDLEKRPSRPIFISITADTRYKLYINSKFVHHGPVKGDSQVWYYDELDIQPYMKAGKNTIAVRVLRLYHGTRFGTSFPRMPLGGLRIQHIRDSNDPPIIFSIETNGSWKTAVDRSSFLPIIEDDMFLHIFEAVDRRNDCKLQWTSAKPHKIFNAFGLVSPWKLSPRQIPFANFRPAIFSTIHNIRSTSNDAEVVDWQACLLAKSSNRTPVRLAAGTIHHVELEASHHLTAFMSFLFERPENPGAEIKITYSECYEDVPDNPQFRQKADRRDTSKKLLGPYDTFILGGRIYEQEDPSSAYHESGEDMVIFAPFHFRTFRFIAIDIAVNSDSDLIFHGVQITRTKYPLDVLAQFSPGGRDVTLPVQKMWETSILTLENCMHDCYEDCPFYEQLQYAMDTRSSALFTYYLSGDDRLARQAITQTRNSFQPSIGLTASRAPCEHLQIIPNFSLFWICMVADHYLHYGDMAFTSQFLPVCDAVLDSFRRRIDPDLGLVRCYDTDDFWDFVDWTEAWKPRGIPPAGKRTGYQTFSSSLYAYTLNLIAPAVEEYGRKGVAEEYRQSAAEVAASIWQHCFDGQYFTDGLAGSALNSEYSQHNQVWAILSGAVIGDEARQLLSKTLSRHDLTTPSIAMSFYTLQAVSLVGGDLYDLHFNDFWAPWIEQLSNNVTTWVEDNVSQRSECHAWGSAPIYEFMAEVVGLRPLEPGWRSISFKPRLALFETMDSKVPIPIRGSSGMAVAHVRWGRKGDDIAGVTIELKKGAENLRIPITLSHESGEDEVVISPFARDVRIQ
With B1, the “QS-17 (PAR %)” value in assay [1] is recorded as 4.786%. Further, the “Peak75 (PAR %)” value in assay [2] is 2.213%. Besides, the “ratio PP/QS-21” value in assay [3] is 0.17. In assay [4], the “Peak57 (PAR %)” value came out at 2.596%.

B2: 996 (protein, listed as Opitutus terrae)
chain: MHRRFLAAILLGAPALLESAAAAPETPAAPPPAAAQPLAWPEVHRETKPWSRWWWFGNIADEKSVTAQLEACAAAGLGGLEITPIYGVRGYEDRFVPFLSPRWMELLRHTLVESRRLGLGIDLATGTGWPFGGPWLQPEDVAHTLAHRVYEIKPGERLGEPVRLTATGLVRVAGPRPVKLEELREPITANANLQELALDQVRFPKPMRLVSLMAFPLALAGVAPTPLDLTSRVRADGSLDWTAPADAGTWTLYALFAGPHGKMVERAAPGGEGFALDHFSSTALRAYLARFDAAFAEGHLLSDLPSAAGADSAPRLRAFFNDSYEVDDADGEANWTPRFLEEFQKRRGYDLRAHLPELLATTENDFSARVRSDYRETISDLLLDEFTNPWREWAHQHGALIRNQAHNSPANILDLYAASDIPEQEGNGFLAMKLASSAAHVSGKPLASAETATWLNEHFLTTLAELKQNTDEFLLAGINHVCYHGTALSPLDAAWPGFNFYASVELNPLNPFWRDFTALNAYVARAQSFLQSGTPDEDVLLYYNIHDRWAERGNGRMPHFGHGGRDPSGSLAATAAALHEAGVGFDYVSDRQLQKITPDRAIVVPQTTFMPEATLARLVELAAQGATILFVDHLPRSAPGLAGLNASGRFEQLLQKIQTQLAPSDVLSAAKLDGGQFLLGPGIRELLDRCPGIARESLRPFGLEFVRRRTDAGALYFLVNRSNQPIDRWIPLQSPAAAAALFDPMTGNAGLAAIHSSGPTGSASIPPAHSDGARASRAPTEIYLQLAPGESCVVQLHATPVAGPAWHYWQRAGEPHLLTGDWSVTFTAGGPALPAAAQLHALTSWTDFAGEAGRAFSGTAVYTRRFARPSGDAPAWELDLGTVGDSARVTLNGRELGVLIQPPWRVVIPANEWRDENALEIDVTNLAANRIADLDRRGASWKIFYNANFPARFRENVGPDRQFTAARWLPRNSGLLGPVKLTPLQKSDPTL
With B2, the “QS-17 (PAR %)” value in assay [1] came to 4.778%. Further, the “Peak75 (PAR %)” value in assay [2] turned out to be 2.221%. Also, in assay [3], the “ratio PP/QS-21” value is on record as 0.16. Further, the “Peak57 (PAR %)” value in assay [4] is reported as 3.190%.

B3: 1080 (protein, listed as Eisenbergiella massiliensis)
chain: MANWIWYPGDFEIYHGMCQNFDREERGFFWPAYWHIADCRHHVVFHASCRLEKETAFRVTAKGIGHVLVKWEEKAPSWFPEGQPFYQEKKYTIGEWISCPAKEIGIDVVIGNRTGLPCIYVEGEVIRSGKNWTVTDFAAPEVPVGWNDMYVRAQQDPQIFEYTQELCRPVSTERVNGGVLYDFGRELTADTLIKINGEERPDQVTLCYGESRTEALDTQLCYLKQVLEIPGKKDSVPAGCASGPEREADCGASPFGRWESGQRYHTKLRAFRYIFVPEGENASLVTVEALYKYVDFPKRSSFSCSDGLINRIWEVADTTFRLASGIFFLDGVKRDRWIWSGDAYQSYFINQYLFFDKDICKRTILALRGNDPVTEHINTIVDYSMYWIISLENYYNMSGDLDFIRMVYPRMESLLRYCMEQTDGQGFIYGREGDWIYIDWAELDKEGILCAEQQLLARSYEAVASVRRLLGLDAEEFDVRKEALLKNIRQFFWDEEKGAFIDSYQSGRRNVTRHANIFAVLFGYADEAETESILHKVLLNEEVAAITTPYFKFYELEALAKLGRFEVVMDTLKSYWGGMLERGADTFWEEYKPEQPEEEQYGMYGDKYGKSLCHAWGASPIYLLGRYCMGVRPTGTAYETFAVEPQLELFDSFSCSFPVNEGTVWMDWKDGVLDVYTDKDGGVLKAAGKEYTLERGKHVVVKGR
In the case of B3, the “QS-17 (PAR %)” value in assay [1] came out at 4.792%. Besides, the “Peak75 (PAR %)” value in assay [2] was determined as 2.434%. Also, the “ratio PP/QS-21” value in assay [3] amounted to 0.17. In addition, the “Peak57 (PAR %)” value in assay [4] is listed as 2.882%.

B4: 1010 (protein, listed as Paenibacillus mucilaginosus)
chain: MEENRLWNARWIWHQSYPWTSDPGTHEMVWFRREFDVTDPHLAQLVVDISADSRYRLFLNGDSVSVGPCKGDRSTHYYETVDLSERLIAGTNVLAAQVLHFAPSGPHLLGVSGPLSIHRAVSGAMFLEGVLIEGNGHSQTLHSDEKWLCKKMPGFKLVPSPIIFFLGGFEDTDGSGLDHGWELPGYDDEGWTNAVIVCETGDKFGQLTPWQLAPRPIPPMREEPASFRGITKADDRAAIPGYEAMLRGGDTRSVRVEAGQSIWLELDAGELVTGYVTLKLRGGRESRIKLLYAESYEEPASNLHHRVKGIRDDAENGILLGEADHYTVAGVGIGESVERYEPFDFRTFRYLRLEAAAKDEPLEIVLLSYRDTGYPLNAQAAFSCSDPDYAALWELSLKTLRRCMHETYEDCPYYEQLQYTMDTRLQMMFTYAVSADDRLARRALFDYHSSALPSGMLQSRYPSEYRQVIPSFSLYWIHMLYEHYWHFGDRELIRRYVPTMTGVLGWFRRMLTPEGLVAPTPRAYWPYFDWCIDWENGTPPAHAKGPLTLLSQMLAAALQTASQIYEAVGWSDAAREAKADANAVNEALLRLCWRPERGLFADGPEVEEFSQHAQVWGVVCGAVQGEDAVRLLERTIEPQAEHMAQLSVPASYELFRMLSRHGLYGKASNVIDRWKAFLHLHLTTLPEVTDDNHPRSDCHAWSALPLSEFTGEILGVRPGAPGYSEIIVSPQPLQLSWAKGSAATRHGSVEVEWTLDEEAVFRMSGNGPVGIPLLVVLPNGKQVEFRHGGKFEASAKLRA
For the molecule B4, in assay [1], the “QS-17 (PAR %)” value stood at 4.796%. Moreover, in assay [2], the “Peak75 (PAR %)” value is given as 2.559%. The “ratio PP/QS-21” value in assay [3] was found to be 0.18. Besides, the “Peak57 (PAR %)” value in assay [4] worked out at 2.845%.
